Eleven molecules from publication PMC11542851 (PLOS Pathogens, 2024) can be followed below.

Changes are numbered by the printed parent chain.

B1: C68.348 (antibody, V domains shown)
VH: QVQLQESGPRLVKSSGTLSLTCAVSGGSISSSKWWSWVRQPPGKGLEWIGEVYHGGSTNYNPSLKSRVTISVDKAKNQFSLKLSSVTAADSAVYYCASLDSAAVFDYWGQGTLVTVSS
VL: QSALTQPASVSGSPGQSITISCTGTSSDVGRFNYVSWYQQHPGKAPKLLIYDVSNRPSGVSNRFSGSKSGNTASLTISGLQAEDEADYYCNSYTSSSTLYVFGTGTKVTVL
B2: C68.175 (antibody, V domains shown)
VH: EVQLLESGGGLVQPGGSLRLSCAASGFTFSSYAMSWVRQAPGKGLEWVSGISGSGGSTYYADSVKGRFTISRDNSKNTLHLQMNSLRAEDTAVYYCAKGSRWNPDYFDYWGQGTLVTVSS
VL: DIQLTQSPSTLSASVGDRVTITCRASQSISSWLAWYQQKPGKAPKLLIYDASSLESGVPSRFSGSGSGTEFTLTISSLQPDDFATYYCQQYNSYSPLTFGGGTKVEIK
B3: C68.239 (antibody, V domains shown)
VH: EVQLLESGGGLVQPGGSLRLSCAASGFTFSSYAMSWVRQAPGKGLEWVSAISGGGDNTYYADSVKGRFTISRDNSKNTLYLQMNSLRAEDTAVYFCAKNPITVVPAAWDRGYFDLWGRGTLVTVSS
VL: SYELTQPPSVSVAPRKTARITCGGNNIGSYSVHWYQQRPGQAPVLVVHDDSDRPSGIPERFSGSNSGNTATLTISRVEAGDEADYYCQVWDSSSDHRGVFGGGTKLTVL
B4: C68.183 (antibody, V domains shown)
VH: EVQLLESGGGLVQPGGSLRLSCVASGFTFRNFAMSWVRQAPGKGLEWVSAISGSGDSTYYADSVKGRFTISRDNSKNTLYLQVNSLRVEDTAIYYCAKGSRGSTDYFDSWGQGTLVTVSS
VL: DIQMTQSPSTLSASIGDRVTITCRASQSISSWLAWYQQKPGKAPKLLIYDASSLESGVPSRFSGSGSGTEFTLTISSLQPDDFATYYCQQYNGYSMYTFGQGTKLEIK
B5: C68.83 (antibody, V domains shown)
VH: EVQLVESGGGVVQPGRSLRLSCAASGFIFSSYGMHWVRQAPGKGLEWVAVIWYDGSNKYYADSVKGRFTISRDNSKNTLYLQMNSLRAEDTAVYYCARDDPEVGCSGGSCYYYYDMDVWGQGTTVTVSS
VL: SYELTQPPSVSVSPGQTARITCSGDALPKQHAHWYQQKPGQAPVLVIYKDIERPSGIPERFSGSSSGTTVTLTISGVQAEDEADYYCQSADSSVTYVVFGGGTKLTVL
B6: C68.200 (antibody, V domains shown)
VH: EVQLLESGGGLVQPGGSLRLSCTASGFTFSRYALTWVRQAPGKGLEWVSAISGSGGNTNYADSVKGRFTISRDNSKNTLYLQMNSLRAEDTAVYYCAKSPRYNNDYFDFWGQGTLVTVSS
VL: DIQLTQSPSTLSASVGDRVTITCRASQSISSWLAWYQQKPGKAPKLLIYDASSLESGVPSRFSGSGSGTEFTLTISSLQPDDFATYYCQQYNTFITFGHGTRLEIK
B7: C68.203 (antibody, V domains shown)
VH: B6 VH with W47C, I51F, G56D, N57S, N59Y, N104S
VL: B6 VL with T93S, H99Q
B8: C68.88 (antibody, V domains shown)
VH: QVQLQESGPGLVKPSETLSLTCSVSGGPISSSRYYWGWIRQSPGEGLEWIGTIYYSGSTYYNPSFKSRVTISVDTSKNQFSLKLSSVTAADTAVYYCATRCYDFWSGYYNREMLWFDCWGQGTLVTVSS
VL: NFMLTQPHSVSESPGKTVTISCTRSSGSIASNYVQWYQQRPGSSPTTVIYENNQTPSGVPDRFSGSIDSSSNSASLTISGLKTEDEADYYCQSYDSSVVVFGGGTKLTVL
B9: C68.121 (antibody, V domains shown)
VH: EVQLVESGGGLVKPGGSLRLSCAASGFTFSDYYMTWIRQAPGKGLEWVSKITNSNSYTHYADSVKGRFTISRDNAKNSLFLHMNSLRAEDTAVYYCARAIWIGYPDDYYMDVWGKGTTVTVSS
VL: SYELTQPPSVSVSPGQTARITCSGDTLPNQYVYWYQQKPGQAPVLLIYKDTERPSGIPERVSGSTSGTTVTLTISGVQAEDEADYYCQSADSSGTSFGGGTKLTVL
B10: C68.185 (antibody, V domains shown)
VH: QVQLVQSGAEVKKPGASVKVSCKTSGYAFTDHYVHWVRQAPGQGLEWMGVINPSGVGTSYAQMFQDRVTLTSDTSTSTVYMVLSSLRSEDTAVYYCVRDDYGVPARGWFDPWGQGTLVTVSS
VL: EVVLTQSPATLSLSPGERATLSCRASQSISSYLAWYQQKPGQAPRLLIYDASNRATGVPARFSGSGSGADFTLTISSLEAEDFALYYCQHRSNWLYTFGQGTKLEIK
B11: C68.327 (antibody, V domains shown)
VH: EVQLLESGGGLVQPGGSLRLSCAASGFTFGSYAMSWVRQAPGKGLEWVSAISGSGGSTYYADSVKGRFTISRDNSKNTLYLQMNSLRAEDTAVYNCAKDLWDGFHWFDSWGQGTLVTVSS
VL: DIQMTQSPSSVSASVGDRVTITCRASQGISSWLAWYQQKPGKAPNLLIYSASSLQSGVPSRFSGSGSGTDFTLTISSLQPEDFATYYCQQANSFPITFGQGTRLEIK

In the test the target is T1, SARS-CoV-2 Wuhan-Hu-1 recombinant spike protein (trimer) (SARS-CoV-2 Wuhan-Hu-1, UniProt P0DTC2).
T1 construct: source: bought: Sino Biologics
In words: ELISA. The settings on record: both partners purified.
In the case of B1, the binding result was “binds”. Then B2, with “binds”; and B3, with “binds”; and B4, with “binds”.

B5: the binding result is “binds”. With B6, the binding result is listed as “binds”. Then B7, with “binds”. Take B8: the binding result was “binds”. To B9 belongs “binds”; to B10, “binds”. To B11 belongs “binds”.
